Laboratory results from patent US20180030118A1.

What was measured:
Assay in all cases: ELISA, GP coated 200 ng/well, mAb at 2 ug/mL; negative control
[1] = target: MARV Ravn GPe (Marburg virus, strain Ravn) (UniProt Q1PDC7)
[2] = target: MARV Angola GPe (Marburg virus, strain Angola) (UniProt Q1PD50)
[3] = target: MARV Musoke GPe (Marburg virus, strain Musoke) (UniProt P35253)
MARV Musoke GPe (Marburg virus, strain Musoke), sequence (P35253 19-648): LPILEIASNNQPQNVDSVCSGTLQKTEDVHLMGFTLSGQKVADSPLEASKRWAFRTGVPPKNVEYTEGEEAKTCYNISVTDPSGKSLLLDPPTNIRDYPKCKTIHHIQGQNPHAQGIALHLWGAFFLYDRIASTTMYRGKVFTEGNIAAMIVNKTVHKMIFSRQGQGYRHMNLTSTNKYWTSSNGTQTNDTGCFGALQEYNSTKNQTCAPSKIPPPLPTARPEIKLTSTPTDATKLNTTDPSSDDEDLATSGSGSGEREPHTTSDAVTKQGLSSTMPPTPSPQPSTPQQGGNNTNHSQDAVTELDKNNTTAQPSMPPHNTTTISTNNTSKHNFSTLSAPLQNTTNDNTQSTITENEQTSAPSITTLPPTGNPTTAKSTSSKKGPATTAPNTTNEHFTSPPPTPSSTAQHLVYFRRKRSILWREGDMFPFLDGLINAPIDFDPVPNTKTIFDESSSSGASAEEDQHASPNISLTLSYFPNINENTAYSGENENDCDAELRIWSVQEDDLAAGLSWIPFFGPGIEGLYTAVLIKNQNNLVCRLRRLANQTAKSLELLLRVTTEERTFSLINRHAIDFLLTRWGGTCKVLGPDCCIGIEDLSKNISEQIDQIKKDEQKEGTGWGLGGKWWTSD

MARV Angola GPe (Marburg virus, strain Angola), sequence (Q1PD50 19-648): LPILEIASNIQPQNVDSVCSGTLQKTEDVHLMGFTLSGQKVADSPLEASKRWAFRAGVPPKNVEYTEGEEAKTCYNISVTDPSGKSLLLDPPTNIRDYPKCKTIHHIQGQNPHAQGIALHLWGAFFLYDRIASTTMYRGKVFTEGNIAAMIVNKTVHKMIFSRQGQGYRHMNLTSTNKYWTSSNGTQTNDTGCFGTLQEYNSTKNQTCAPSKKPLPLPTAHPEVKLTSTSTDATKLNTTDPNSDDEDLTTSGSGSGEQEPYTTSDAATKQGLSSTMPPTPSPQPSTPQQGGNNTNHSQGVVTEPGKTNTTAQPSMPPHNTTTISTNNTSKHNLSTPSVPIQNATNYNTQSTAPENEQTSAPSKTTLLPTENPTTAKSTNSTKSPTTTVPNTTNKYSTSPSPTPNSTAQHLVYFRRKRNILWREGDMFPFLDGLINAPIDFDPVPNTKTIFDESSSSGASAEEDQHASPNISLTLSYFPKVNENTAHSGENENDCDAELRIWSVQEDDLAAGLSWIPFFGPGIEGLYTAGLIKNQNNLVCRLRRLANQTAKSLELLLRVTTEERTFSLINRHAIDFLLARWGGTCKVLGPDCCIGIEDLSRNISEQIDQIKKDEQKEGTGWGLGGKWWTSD
MARV Ravn GPe (Marburg virus, strain Ravn), sequence (Q1PDC7 19-648): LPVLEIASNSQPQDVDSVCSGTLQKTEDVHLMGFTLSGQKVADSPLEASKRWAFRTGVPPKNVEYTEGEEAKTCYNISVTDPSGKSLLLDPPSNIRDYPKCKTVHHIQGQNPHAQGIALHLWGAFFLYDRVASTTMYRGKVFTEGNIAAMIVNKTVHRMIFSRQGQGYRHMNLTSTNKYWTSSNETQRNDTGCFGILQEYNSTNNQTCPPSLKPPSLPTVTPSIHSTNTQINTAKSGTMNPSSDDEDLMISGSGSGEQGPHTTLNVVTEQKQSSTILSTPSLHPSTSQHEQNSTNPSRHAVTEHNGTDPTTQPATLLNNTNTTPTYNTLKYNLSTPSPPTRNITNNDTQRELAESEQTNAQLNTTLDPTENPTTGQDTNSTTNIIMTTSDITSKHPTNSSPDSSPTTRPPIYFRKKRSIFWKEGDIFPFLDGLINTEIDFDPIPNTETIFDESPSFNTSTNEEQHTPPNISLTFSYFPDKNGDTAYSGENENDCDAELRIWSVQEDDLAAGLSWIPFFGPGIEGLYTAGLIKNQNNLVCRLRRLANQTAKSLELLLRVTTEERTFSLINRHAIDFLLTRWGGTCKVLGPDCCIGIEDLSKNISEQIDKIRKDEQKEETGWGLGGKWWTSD

Substance	OD405 @ 30 min [1] [OD405]	OD405 @ 30 min [2] [OD405]	OD405 @ 30 min [3] [OD405]
IgG Neg Control (human) (antibody)	0.052	0.054	0.056
IgG Neg Control (murine) (antibody)	0.049	0.047	0.049
